Assay results taken from patent US20040002450A1, “Y17 - isolated molecules comprising epitopes containing sulfated moieties, antibodies to such epitopes, and uses thereof” (priority 2000, published 2004).

Legend:
washed platelets = test: Ristocetin-induced agglutination of washed platelets after scFv preincubation; assay type: cell-based, human; settings: for % inhibition / % agglutination: washed platelets; for % inhibition: ristocetin; for % agglutination: ristocetin = 100%
Protocol: Aggregation is determined in PRP due to the presence of thrombotic agents, while agglutination is determined in washed platelets. The effect of Y1 (scFv) on agglutination of washed platelets was tested at various concentrations of Y1. Platelets were pre-incubated with Y1 scFv, Y17 scFv, Y16-scFv, or a control TM-1 scFv for 4 min at 37° C. before being exposed to ristocetin, an inducer of platelet agglutination and aggregation.
Platelet concentrate in acid-citrate-dextrose (ACD) was obtained from a blood bank, platelets were isolated, washed once in buffer containing ACD and saline in a ratio of 1:7. The platelets were centrifuged at 800 g for 10 min after each wash and were resuspended in Tyrodes solution (2 mM MgCl2, 137 mM NaCl, 2.68 mM KCl, 3 mM NaH2PO4, 0.1% glucose, 5 mM Hepes and 0.35% albumin, pH 7.35) and count the number of cells.
For platelet aggregation studies, platelet rich plasma (PRP) and washed platelets were stirred at 500 rpm at 37° C. in whole blood Lumiaggregometer (Chronolog, Havertown, Pa.). The difference in light transmission through the platelet suspension and suspending medium was taken as 100% aggregation. The effect of Y1 on platelet aggregation was evaluated by addition of different concentration of Y1 before the addition of agonist, and the effect was recorded for four minutes.
The effect of Y17-scFv on vWF-dependent agglutination of platelets was tested at different concentrations of Y17.

primary leukemia cells = test: FACS analysis of binding to primary leukemia cells of patients; set-up: species or system human
Protocol: Analysis of binding of scFv Y1 antibodies and anti-CD162 antibodies to diseased cells also illustrates that scFv Y1 has binding characteristics different from those of anti-CD-162 antibodies. […] Table F). Y1 binds to the leukemic cells in 10 of 12 samples. In contrast, anti-CD162 bound only 5 out of 12 samples. […] Thus, it may be concluded that, in leukemic cells, scFv Y1 binds to a ligand other than that recognized by anti-CD162.
Samples provided from hospitals. Patients sample 30 μl/tube. Add 5 μl/tube of CD33-APC (for AML) or CD19-APC (for B-CLL) or CD38-APC (for Multiple Myeloma). Add 5 μl/tube of CD45-PerCp and 5 μl of scFv-Y1 or control scFv-N31 or CD162-PE (KPL1). Incubate tubes 30 minutes at 4° C. with low shaking. Wash by adding 2 ml PBS and spin 5 minutes at 1200 rpm. Discard supernatant.
For a one step assay continue with the lysis step:
Add 500 μl BD Lysine solution diluted 1:10 with ddH2O (300 μl to patient sample). Vortex at high speed and incubate 12 minutes at 4° C. Wash as above. Discard supernatant. And add 500 μl PBS. The samples are read in the FACS using blood sample acquisition setup according to international standards.
For two or more assays: working buffer is PBS+1% BSA+0.05% sodium azide. Incubations and wash as above.
Lysis of the red blood cells is the final step in the assay, followed by resuspension with 500 μl PBS.

[1] = test system: platelets, KG-1, Raji and T2 cells; test: FACS binding profile on platelets and human cell lines
[2] = test system: glycocalicin, platelet lysate, KG-1 cell lysate, Raji cell lysate; test: Western blot on glycocalicin and cell lysates; assay type: binding, human
Protocol: Antibodies against GPIbα (CD42b) recognize platelet lysate and glycocalicin and but not KG-1 cell lysate (a Y1 binding positive myeloid cell line) or Raji cell lysate (a B cell line that is negative for Y1 binding at concentrations at which KG-1 cells are positive for Y1 binding). […] (FIG. 20).
The nitrocellulose membrane was blocked using 5% skim milk for one hour at room temperature. The membrane was then washed 3 times for 5 minutes each with 0.05% Tween 20 in PBS at room temperature. The membrane was incubated with 5 μg/ml Y1-biotin (or 181-biotin) in 2% skim milk in PBS for one hour at room temperature. The membrane was then washed 3 times for 5 minutes each with cold 0.05% Tween 20 in PBS in the cold room (about 4 to about 10° C.). The membrane was then incubated in the cold room with a 1:1000 dilution of SAV-HRP (streptavidin-HRP) (at a final concentration of […]) in 2% skim milk, 0.05% Tween. The dilution was carried out at room temperature (about 25° C.), then the diluted SAV-HRP was cooled on ice for 10-15 minutes before use. The incubation was carried out for 1 hour with gentle shaking. After the incubation with SAV-HRP, the membrane was washed, as above. The membrane was then incubated with Super Signal mixture (Pierce) for 5 minutes as directed in the commercial protocol, then excess solution was dried. […]

B1: Y1 scFv: fully human scFv clone binding platelets and myelogenous leukemia cells; SEQ ID NO: 25, heavy chain CDR3 SEQ ID NO: 8 (protein, listed as Homo sapiens)
scFv: MKYLLPTAAAGLLLLAAQPAMAEVQLVESGGGVVRPGGSLRLSCAASGFTFDDYGMSWVRQAPGKGLEWVSGINWNGGSTGYADSVKGRFTISRDNAKNSLYLQMNSLRAEDTAVYYCARMRAPVIWGQGTLVTVSRGGGGSGGGGSGGGGSSELTQDPAVSVALGQTVRITCQGDSLRSYYASWYQQKPGQAPVLVIYGKNNRPSGIPDRFSGSSSGNTASLTITGAQAEDEADYYCNSRDSSGNHVVFGGGTKLTVLGAAAEQKLISEEDLNGAA
effect on ristocetin-induced agglutination of washed platelets (in words) (washed platelets; 4 μg/ml): No inhibition
effect on ristocetin-induced agglutination of washed platelets (in words) (washed platelets; 12.5 μg/ml): only partial inhibition
effect on ristocetin-induced agglutination of washed platelets (in words) (washed platelets; 25 μg/ml): inhibited agglutination
% inhibition (washed platelets; scFv 4 μg/ml): 8%
% agglutination (washed platelets; scFv 4 μg/ml): 92%
% inhibition (washed platelets; scFv 12.5 μg/ml): 33%
% agglutination (washed platelets; scFv 12.5 μg/ml): 67%
% inhibition (washed platelets; scFv 25 μg/ml): 77%
% agglutination (washed platelets; scFv 25 μg/ml): 23%
leukemia patient samples whose leukemic cells are bound (primary leukemia cells; 12 patient samples, FACS): 10 of 12
% Positive (primary leukemia cells; AML patients): 80%
Number Positive (primary leukemia cells; AML patients): 60/75
% Negative (primary leukemia cells; B-ALL, Bone Marrow): 67%
% Positive (primary leukemia cells; B-ALL, Bone Marrow): 33%
Number Positive (primary leukemia cells; B-ALL, Bone Marrow): 3/9
% Negative (primary leukemia cells; B-CLL, Peripheral Blood): 26%
% Positive (primary leukemia cells; B-CLL, Peripheral Blood): 74%
Number Positive (primary leukemia cells; B-CLL, Peripheral Blood): 17/23
% Positive (primary leukemia cells; B-Leukemia patients): 67%
Number Positive (primary leukemia cells; B-Leukemia patients): 29/43
% Negative (primary leukemia cells; B-Lymphoma, Peripheral Blood): 38%
% Positive (primary leukemia cells; B-Lymphoma, Peripheral Blood): 62%
Number Positive (primary leukemia cells; B-Lymphoma, Peripheral Blood): 5/8
% Positive (primary leukemia cells; Multiple Myeloma patients): 100%
Number Positive (primary leukemia cells; Multiple Myeloma patients): 16/16
% Negative (primary leukemia cells; Pre-B-ALL, Bone Marrow): 0%
% Positive (primary leukemia cells; Pre-B-ALL, Bone Marrow): 100%
Number Positive (primary leukemia cells; Pre-B-ALL, Bone Marrow): 3/3
binding to Raji and T2 cells [1]: do not bind
recognition of glycocalicin, platelet lysate, KG-1 and Raji cell lysate [2]: recognized both glycocalicin, platelet lysate, and KG-1 cells, but not Raji cell extract
